According to patent publication US20220064648, “NOVEL X-[…] FOR THE USE IN DETECTION OF SNAP25” (Galderma Holding S.A., published 2022):

T1: SNAP25 Peptide 3 (PEP3; only a fragment of it is a SNAP25 subsequence) (Homo sapiens, UniProt P60880 SEQ:1-33)
T1 chain: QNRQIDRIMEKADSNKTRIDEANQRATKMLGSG

B1: PEP 4.01 (ssDNA)
DNA: TTTTTAAGCCCACAAGCGTTCGGCTCTCACAGATCGTTGACGTGGGCCCATG
B2: PEP 4.02 (ssDNA)
DNA: TTTTTAAGCCCACTACTGTTCGAAGGGCACAGTCCAGGCCGGTGGGCCCATG
B3: PEP 3.23 (ssDNA)
DNA: TTTTTAAGCCCACCTCACTGTGCAAGTCACAGGTCGGCACCGTGGGCCCATG
modifications: W indole, X amine, Y phenol modified dU [15, 19, 34 (phenol dU), 27 (amine dU)]
B4: PEP 3.15 (ssDNA)
DNA: TTTTTAACACGACTGCACTGTGAATCTCGAACGCATCGGGAGTCGTGCCATG
modifications: W indole, X amine, Y phenol modified dU [14, 25, 27, 43 (amine dU), 19, 46 (phenol dU), 36 (indole dU)]
B5: PEP 3.01 (ssDNA)
DNA: TTTTTAACACGACACCACTGTGGTTCTCACAGCTATGTGTTGTGGGCCCATG
modifications: W indole, X amine, Y phenol modified dU [19Y,24W,25X,27X,34Y,36W,38W,40W]
B6: PEP 3.19 (ssDNA)
DNA: TTTTTAAGCCCACGCCACTGTGACCATCGAACCACACGGCCGTCGTGCCATG
modifications: W indole, X amine, Y phenol modified dU [19, 46 (phenol dU), 27, 43 (amine dU)]
B7: PEP 3.11 (ssDNA)
DNA: TTTTTAAGCCCACTGTCGTTCGGCGGGCGAACGACAGCATGGTCGTGCCATG
modifications: W indole, X amine, Y phenol modified dU [14X,16W,19W,20Y,40W,43X,46Y]
B8: PEP 3.12 (ssDNA)
DNA: TTTTTAACACGACTATCCTGTGAGCAACACAGGGCGGCACTGTGGGCCCATG
modifications: W indole, X amine, Y phenol modified dU [14 (amine dU), 16 (indole dU), 19 (phenol dU)]
B9: PEP 3.18 (ssDNA)
DNA: TTTTTAACACGACACGGGTTCGCACATCACAGAGATACACTGTCGTGCCATG
modifications: W indole, X amine, Y phenol modified dU [19, 36 (indole dU), 20, 46 (phenol dU), 27, 43 (amine dU)]
B10: PEP 3.05 (ssDNA)
DNA: TTTTTAACACGACGACACTGTGTTGGGCGAACTCCGCTGGGGTGGGCCCATG
modifications: W indole, X amine, Y phenol modified dU [19Y,23W,24W,38W]
B11: PEP 3.03 (ssDNA)
DNA: TTTTTAACACGACAATGGTTCGGGGGGCGAACGTCACTGTGGTCGTGCCATG
modifications: W indole, X amine, Y phenol modified dU [16W,19W,20Y,34Y,38W,40W,43X,46Y]
B12: PEP 3.24 (ssDNA)
DNA: TTTTTAAGCCCACCAGGGTTCGGGAGCCGAACGCCAGCACTGTCGTGCCATG
modifications: W indole, X amine, Y phenol modified dU [19,20,43,46]
B13: PEP 3.21 (ssDNA)
DNA: TTTTTAAGCCCACTCCGGTTCGTCCATCACAGCCCACTGTGGTCGTGCCATG
modifications: W indole, X amine, Y phenol modified dU [14, 27, 43 (amine dU), 19, 23, 38, 40 (indole dU), 20, 46 (phenol dU)]
B14: PEP 3.02 (ssDNA)
DNA: TTTTTAACACGACAGCACTGTGGTTCGCGAACCTCAAGCTCGTCGTGCCATG
modifications: W indole, X amine, Y phenol modified dU [19Y,24W,25X,34Y,40W,43X,46Y]
B15: PEP 3.22 (ssDNA)
DNA: TTTTTAACACGACATCACTGTGGAAGACACAGGACGTGCGTGTCGTGCCATG
modifications: W indole, X amine, Y phenol modified dU [15, 19, 46 (phenol dU), 43 (amine dU)]
B16: PEP 3.04 (ssDNA)
DNA: TTTTTAAGCCCACGGCACTGTGCTCAGCACAGCTCGGGGTGGTGGGCCCATG
modifications: W indole, X amine, Y phenol modified dU [19Y,24W,34Y,40W]
B17: PEP 3.14 (ssDNA)
DNA: TTTTTAACACGACACCACTGTGCCCACCACAGTTCACTGAAGTGGGCCCATG
modifications: W indole, X amine, Y phenol modified dU [19, 34 (phenol dU), 38 (indole dU)]
B18: PEP 3.07 (ssDNA)
DNA: TTTTTAAGCCCACGACACTGTGGCCAACACAGTACATGCATGTGGGCCCATG
modifications: W indole, X amine, Y phenol modified dU [19Y]
B19: PEP 3.16 (ssDNA)
DNA: TTTTTAAGCCCACATCACTGTGCGAGCCACAGATCAGGCAGGTGGGCCCATG
modifications: W indole, X amine, Y phenol modified dU [15, 19, 34 (phenol dU)]
B20: PEP 3.06 (ssDNA)
DNA: TTTTTAACACGACCGCACTGTGATAGGCGAACGGTGTGGAGGTCGTGCCATG
modifications: W indole, X amine, Y phenol modified dU [19Y,24W,35Y,43X,46Y]
B21: PEP 3.10 (ssDNA)
DNA: TTTTTAACACGACAGCACTGTGCACAGCACAGCTCAAGGGTGTGGGCCCATG
modifications: W indole, X amine, Y phenol modified dU [19Y,34Y]
B22: PEP 3.13 (ssDNA)
DNA: TTTTTAACACGACATCACTGTGCACAGCGAACTGCGTTGGCGTCGTGCCATG
modifications: W indole, X amine, Y phenol modified dU [15, 19, 46 (phenol dU), 38 (indole dU), 43 (amine dU)]
B23: PEP 3.17 (ssDNA)
DNA: TTTTTAAGCCCACTAGAGTTCGGCCATCACAGTCCAACACTGTGGGCCCATG
modifications: W indole, X amine, Y phenol modified dU [14, 27 (amine dU), 19 (indole dU), 20 (phenol dU)]
B24: PEP 3.08 (ssDNA)
DNA: TTTTTAACACGACGTCACTGTGGTTCTCGAACGCCGCGCTTGTCGTGCCATG
modifications: W indole, X amine, Y phenol modified dU [15Y,19Y,24W,25X,27X,40W,43X,46Y]

What follows are binders tested against SNAP25 Peptide 4 (PEP4, BoNT/A cleavage site region) (Homo sapiens, UniProt P60880 SEQ:1-24) (assay: ELONA). Conditions: label: biotin.

Binder | binding signal
B1 | 257 ELISA signal
B2 | 208 ELISA signal

Target: T1, SNAP25 Peptide 3 (PEP3; only a fragment …)
Assay: ELONA
Conditions: not given
Text: The data in Table 2 was collected by running direct ELISA assays on the 96 X-aptamers, elucidating their ability to bind SNAP25, SNAP25 fragments (PEP1, PEP2, PEP3, and PEP4), and a negative control. The X-aptamers were biotinylated and immobilized onto streptavidin-coated plates and were utilized as detection molecules. Higher numbers represent strong binding. The negative control peptide is a random peptide to measure the amount of binding that occurs to a random amino acid sequence.

Binder | binding signal
B3 | 95 ELISA signal
B4 | 114 ELISA signal
B5 | 503 ELISA signal
B6 | 102 ELISA signal
B7 | 137 ELISA signal
B8 | 118 ELISA signal
B9 | 105 ELISA signal
B10 | 272 ELISA signal
B11 | 338 ELISA signal
B12 | 81 ELISA signal
B13 | 96 ELISA signal
B14 | 406 ELISA signal
B15 | 96 ELISA signal
B16 | 276 ELISA signal
B17 | 114 ELISA signal
B18 | 219 ELISA signal
B19 | 111 ELISA signal
B20 | 230 ELISA signal
B21 | 139 ELISA signal
B22 | 115 ELISA signal
B23 | 110 ELISA signal
B24 | 207 ELISA signal
